Laboratory results taken from article PMC12102759.

B1: ICA1L peptide 453-468 (Islet cell autoantigen 1-like protein), 16-mer library wild type / NSP16 (ORF1ab Nsp16, residues 6799-7088) (parent)
chain 1: MSAWFNLFADLDPLSN
chain 2: SSQAWQPGVAMPNLYKMQRMLLEKCDLQNYGDSATLPKGIMMNVAKYTQLCQYLNTLTLAVPYNMRVIHFGAGSDKGVAPGTAVLRQWLPTGTLLVDSDLNDFVSDADSTLIGDCATVHTANKWDLIISDMYDPKTKNVTKENDSKEGFFTYICGFIQQKLALGGSVAIKITEHSWNADLYKLMGHFAWWTAFVTNVNASSSEAFLIGCNYLGKPREQIDGYVMHANYIFWRNTNPIQLSSYSLFDMSKFPLKLRGTAVMSLKEGQINDMILSLLSKGRLIIRENNRVVI
B2: NYNRIN peptide 1030-1045 (Protein NYNRIN), 16-mer library wild type / NSP3 UBl1 (ORF1ab Nsp3a Ub1, residues 819-925) (parent)
chain 1: EAPSLSEEILRALSLH
chain 2: APTKVTFGDDTVIEVQGYKSVNITFELDERIDKVLNEKCSAYTVELGTEVNEFACVVADAVIKTLQPVSELLTPLGIDLDEWSMATYYLFDESGEFKLASHMYCSFY
B3: NCOA2 peptide 1073-1088 (Nuclear receptor coactivator 2), 16-mer library wild type / NSP3 UBl1 (ORF1ab Nsp3a Ub1, residues 819-925) (parent)
chain 1: PSDEGALLDQLYLALR
chain 2: B2 chain 2
B4: PRDM14 peptide 196-211 (PR domain zinc finger protein 14), 16-mer library wild type / NSP3 SUD-M (ORF1ab Nsp3c SUD-M, residues 1356-1493) (parent)
chain 1: QFTEEDLHFVLYGVTP
chain 2: LPSIISNEKQEILGTVSWNLREMLAHAEETRKLMPVCVETKAIVSTIQRKYKGIKIQEGVVDYGARFYFYTSKTTVASLINTLNDLNETLVTMPLGYVTHGLNLEEAARYMRSLKVPATVSVSSPDAVTAYNGYLTSS
B5: TET3 peptide 458-473 (Methylcytosine dioxygenase TET3), 16-mer library wild type / NSP3 SUD-M (ORF1ab Nsp3c SUD-M, residues 1356-1493) (parent)
chain 1: DPMAELEQLLGSASDY
chain 2: B4 chain 2

Variants of: B1
Details: with NSP16 (ORF1ab Nsp16, residues 6799-7088); bait immobilised on MaxiSorp plates (10 µg), library pre-cleared on GST, 2 h binding at 4 °C, five washes; one round per day, days 1-4; value from days 2 and 3; keep out of graded; scale: average fractional NGS count over selection days 2 and 3

Variant | screen value
chain 1 S15R | 0
chain 1 A3P | 0
chain 1 A3D | 4.01e-05
chain 1 A3L | 0
chain 1 F5L | 0
chain 1 F5W | 0
chain 1 L7S | 0
chain 1 N6K | 0
chain 1 N6R | 0
chain 1 W4A | 0
chain 1 F8Y | 0
chain 1 D10Y | 6.76e-05
chain 1 L11W | 0
chain 1 L11P | 0
chain 1 L11I | 1.35e-05
chain 1 A9N | 0
chain 1 P13V | 0
chain 1 S2L | 0
chain 1 S2D | 0.00136

Variants of: B2
Details: with NSP3 UBl1 (ORF1ab Nsp3a Ub1, residues 819-925); bait immobilised on MaxiSorp plates (10 µg), library pre-cleared on GST, 2 h binding at 4 °C, five washes; one round per day, days 1-4; value from days 2 and 3; keep out of graded; scale: average fractional NGS count over selection days 2 and 3

Variant | screen value
chain 1 I9A | 0
chain 1 I9E | 0
chain 1 L5N | 0
chain 1 L5G | 0
chain 1 L5H | 0
chain 1 L15W | 0
chain 1 L10D | 0
chain 1 R11P | 0
chain 1 R11V | 0
chain 1 R11L | 0
chain 1 L13F | 0
chain 1 L13H | 0
chain 1 L13R | 0
chain 1 L13M | 0
chain 1 L13V | 0
chain 1 E8P | 0
chain 1 E8N | 0
chain 1 S4V | 0
chain 1 S4M | 0
chain 1 A2S | 0

Variants of: B3
Details: with NSP3 UBl1 (ORF1ab Nsp3a Ub1, residues 819-925); bait immobilised on MaxiSorp plates (10 µg), library pre-cleared on GST, 2 h binding at 4 °C, five washes; one round per day, days 1-4; value from days 2 and 3; keep out of graded; scale: average fractional NGS count over selection days 2 and 3

Variant | screen value
chain 1 L8Q | 0
chain 1 L8K | 0
chain 1 L8E | 0
chain 1 L8S | 0
chain 1 L8A | 0
chain 1 L8H | 0
chain 1 L8N | 0
chain 1 A14R | 6.24e-06
chain 1 A14Q | 0
chain 1 A14I | 0
chain 1 A14Y | 0
chain 1 A14D | 0
chain 1 L7Q | 0
chain 1 L7S | 0
chain 1 L7T | 0
chain 1 G5A | 5.46e-06
chain 1 G5T | 0
chain 1 G5S | 1.04e-05
chain 1 G5N | 0
chain 1 G5I | 4.53e-05
chain 1 D3N | 1.14e-05
chain 1 D3E | 7.04e-06
chain 1 Y12F | 0.000754
chain 1 Y12A | 0

Variant | screen value
chain 1 Y12V | 0
chain 1 Y12S | 0
chain 1 A6L | 2.33e-05
chain 1 A6M | 1.23e-05
chain 1 A6R | 1.8e-05
chain 1 A6F | 1.11e-05
chain 1 A6K | 0
chain 1 D9S | 1.09e-05
chain 1 D9P | 0.000642
chain 1 D9T | 7.34e-06
chain 1 D9E | 2.36e-05
chain 1 R16T | 0.000892
chain 1 R16I | 1.03e-05
chain 1 R16F | 0.000746
chain 1 R16M | 7.36e-05
chain 1 R16S | 4.51e-05
chain 1 R16Y | 0.0506
chain 1 R16H | 0.000164
chain 1 R16Q | 0.00132
chain 1 S2M | 8.73e-06
chain 1 S2Q | 0.000342
chain 1 S2A | 1.93e-05
chain 1 S2I | 0
chain 1 S2H | 1.09e-05

Variant | screen value
chain 1 S2E | 0
chain 1 S2G | 1.09e-05
chain 1 S2F | 4.76e-06
chain 1 S2V | 8.33e-06
chain 1 S2L | 1.56e-05
chain 1 Q10L | 0
chain 1 Q10M | 3.19e-06
chain 1 Q10A | 0
chain 1 Q10W | 0
chain 1 L15N | 0
chain 1 L15I | 7.04e-06
chain 1 L11Y | 0
chain 1 L11K | 0
chain 1 L11A | 0
chain 1 L11I | 0.000119
chain 1 L11R | 0
chain 1 L11P | 0
chain 1 L11D | 0
chain 1 L11V | 9.51e-06
chain 1 E4F | 0
chain 1 E4P | 0
chain 1 L13S | 0
chain 1 L13E | 0

Variants of: B4
Details: with NSP3 SUD-M (ORF1ab Nsp3c SUD-M, residues 1356-1493); bait immobilised on MaxiSorp plates (10 µg), library pre-cleared on GST, 2 h binding at 4 °C, five washes; one round per day, days 1-4; value from days 2 and 3; keep out of graded; scale: average fractional NGS count over selection days 2 and 3

Variant | screen value
chain 1 V14E | 3.19e-05
chain 1 V14Q | 0
chain 1 V14Y | 1.26e-05
chain 1 V14D | 3.47e-05
chain 1 V14N | 3.28e-05
chain 1 H8P | 2.01e-05
chain 1 H8S | 2.39e-05
chain 1 E5S | 0
chain 1 E5R | 0
chain 1 V10K | 0
chain 1 V10E | 0
chain 1 V10D | 0
chain 1 V10H | 0
chain 1 V10N | 0
chain 1 Y12P | 0
chain 1 Y12F | 1.23e-05
chain 1 T3I | 0
chain 1 T3Q | 0
chain 1 F2Y | 0

Variant | screen value
chain 1 P16W | 2.83e-05
chain 1 E4F | 1.23e-05
chain 1 E4D | 2.34e-05
chain 1 E4T | 1.11e-05
chain 1 E4N | 0
chain 1 L7K | 0
chain 1 L7I | 1.23e-05
chain 1 L7G | 0
chain 1 L11G | 0
chain 1 L11A | 0
chain 1 L11D | 0
chain 1 L11E | 0
chain 1 L11N | 0
chain 1 L11T | 0
chain 1 L11M | 0
chain 1 T15F | 0
chain 1 T15M | 0
chain 1 T15R | 0
chain 1 F9D | 0

Variants of: B5
Details: with NSP3 SUD-M (ORF1ab Nsp3c SUD-M, residues 1356-1493); bait immobilised on MaxiSorp plates (10 µg), library pre-cleared on GST, 2 h binding at 4 °C, five washes; one round per day, days 1-4; value from days 2 and 3; keep out of graded; scale: average fractional NGS count over selection days 2 and 3

Variant | screen value
chain 1 L9N | 0
chain 1 L9A | 0
chain 1 L9Y | 0
chain 1 L9T | 0
chain 1 G11H | 0
chain 1 G11I | 0
chain 1 G11A | 0
chain 1 G11S | 0
chain 1 G11W | 0
chain 1 S12I | 0
chain 1 S12G | 0
chain 1 S12K | 0
chain 1 S12E | 0
chain 1 S12R | 0
chain 1 S12Q | 0
chain 1 M3Q | 0
chain 1 M3N | 0
chain 1 M3S | 0
chain 1 M3T | 0
